Results on 37 molecules are retold here after US9187525B2, “Methods of treating ophthalmic diseases using NPR-B agonists” (Shire Orphan Therapies GmbH, dated 2015).

B1: JAL-1283 (peptide)
peptide: Octanoyl-[dA]F[dL]L[Hyp][SH‑158]DRI-NH2
modifications: reading uncertain; also: printed as Occ-ala-Phe-leu-Leu-Hyp-(SH-158)-Asp-Arg-Ile-NH2
B2: JAL-1268 (peptide)
peptide: Octanoyl-A[NMeF]KL[Hyp][NMeL]DRI-NH2
modifications: not fully specified (some residues); printed as Occ-ala-Nmf-lys-Leu-Hyp-Nml-Asp-Arg-Ile-
B3: JAL-1263 (peptide)
peptide: Octanoyl-AFRL[Tap(2Me)]LDRI-NH2
modifications: not fully specified (some residues); printed as Occ-ala-Phe-arg-Leu-Tap(2Me)-Leu-Asp-Arg-Ile-NH2
B4: JAL-1264 (peptide)
peptide: Octanoyl-AFLL[Tap(2Me)]LDRI-NH2
modifications: not fully specified (some residues); printed as Occ-ala-Phe-leu-Leu-Tap(2Me)-Leu-Asp-Arg-Ile-NH2
B5: JAL-1266 (peptide)
peptide: Octanoyl-[Sni][2Pal]LL[Hyp][NMeL]DRI-NH2
modifications: not fully specified (some residues); printed as Occ-Sni-Opa-leu-Leu-Hyp-Nml-Asp-Arg-Ile-
B6: JAL-1265 (peptide)
peptide: Octanoyl-[Sni]FXL[Hyp][NMeL]DRI-NH2
modifications: not fully specified (some residues); printed as Occ-Sni-Phe-orn-Leu-Hyp-Nml-Asp-Arg-Ile-NH2
B7: JAL-1292 (peptide)
peptide: [AR‑201‑49]F[dR]L[Hyp][NMeL]DRI-NH2
modifications: reading uncertain; also: printed as (AR-201-49)-Phe-arg-Leu-Hyp-Nml-Asp-Arg-Ile-NH2
B8: JAL-1294 (peptide)
peptide: [AR‑201‑49]F[dL]L[Hyp][NMeL]DRI-NH2
modifications: reading uncertain; also: printed as (AR-201-49)-Phe-leu-Leu-Hyp-Nml-Asp-Arg-Ile-NH2
B9: JAL-1284 (peptide)
peptide: Octanoyl-[dA]F[dR]L[Hyp][SH‑158]DRI-NH2
modifications: reading uncertain; also: printed as Occ-ala-Phe-arg-Leu-Hyp-(SH-158)-Asp-Arg-Ile-NH2
B10: JAL-1316 (peptide)
peptide: [AR‑201‑54]F[dR]L[Hyp][NMeL]DRI-NH2
modifications: reading uncertain; also: printed as (AR-201-54)-Phe-arg-Leu-Hyp-Nml-Asp-Arg-Ile-NH2

Numbered stars: 1 amine (or outer) side, 2 acyl side, 3 side chain; on linkers, the order of the positions; unused ones are H or OH. Square brackets hold non-standard residues; d marks the D form. Ends that are not written are not given here. * marks the point of attachment. Tap(2Me) = (2S,4R)-4-(dimethylamino)pyrrolidine-2-carboxylic acid, CN(C)[C@@H]1C[C@@H](C(=O)[*:2])N([*:1])C1; Eal = rac-imidazolidine-2-carboxylic acid, O=C(C1N([*:1])CCN1[*:3])[*:2]; 6182 = 5-Butyl-2H-pyrazole-3-carboxylic acid, CCCCc1cc(C(=O)*)[nH]n1; Pro(trans-4-NH2) = O=C([C@@H]1C[C@@H](N[*:3])CN1[*:1])[*:2]; Pro(trans-4-guanidino) = N=C(N)N[C@H]1CN[C@H](C(=O)O)C1; Sni = (S)-nipecotic acid, O=C([C@H]1CCCN([*:1])C1)[*:2]; Azetidine3carboxylic = O=C(C1CN([*:1])C1)[*:2]; Hyp = O=C(O)[C@@H]1C[C@@H](O)CN1; NMeF = CN[C@@H](Cc1ccccc1)C(=O)O; 2Pal = N[C@@H](Cc1ccccn1)C(=O)O; NMeL = CN[C@@H](CC(C)C)C(=O)O; AR‑201‑48 = not defined here; AR‑201‑49 = not defined here; AR‑201‑54 = not defined here; Tle = CC(C)(C)[C@H](N)C(=O)O; dOrn = NCCC[C@@H](N)C(=O)O; SH‑158 = not defined here; Octanoyl = CCCCCCCC(=O)*; Ac5c = NC1(C(=O)O)CCCC1; dAze = O=C(O)[C@H]1CCN1; Hexanoyl = CCCCCC(=O)*; Sar = CNCC(=O)O

The target in the assay is T1, natriuretic peptide receptor-B (human).
T1 chain: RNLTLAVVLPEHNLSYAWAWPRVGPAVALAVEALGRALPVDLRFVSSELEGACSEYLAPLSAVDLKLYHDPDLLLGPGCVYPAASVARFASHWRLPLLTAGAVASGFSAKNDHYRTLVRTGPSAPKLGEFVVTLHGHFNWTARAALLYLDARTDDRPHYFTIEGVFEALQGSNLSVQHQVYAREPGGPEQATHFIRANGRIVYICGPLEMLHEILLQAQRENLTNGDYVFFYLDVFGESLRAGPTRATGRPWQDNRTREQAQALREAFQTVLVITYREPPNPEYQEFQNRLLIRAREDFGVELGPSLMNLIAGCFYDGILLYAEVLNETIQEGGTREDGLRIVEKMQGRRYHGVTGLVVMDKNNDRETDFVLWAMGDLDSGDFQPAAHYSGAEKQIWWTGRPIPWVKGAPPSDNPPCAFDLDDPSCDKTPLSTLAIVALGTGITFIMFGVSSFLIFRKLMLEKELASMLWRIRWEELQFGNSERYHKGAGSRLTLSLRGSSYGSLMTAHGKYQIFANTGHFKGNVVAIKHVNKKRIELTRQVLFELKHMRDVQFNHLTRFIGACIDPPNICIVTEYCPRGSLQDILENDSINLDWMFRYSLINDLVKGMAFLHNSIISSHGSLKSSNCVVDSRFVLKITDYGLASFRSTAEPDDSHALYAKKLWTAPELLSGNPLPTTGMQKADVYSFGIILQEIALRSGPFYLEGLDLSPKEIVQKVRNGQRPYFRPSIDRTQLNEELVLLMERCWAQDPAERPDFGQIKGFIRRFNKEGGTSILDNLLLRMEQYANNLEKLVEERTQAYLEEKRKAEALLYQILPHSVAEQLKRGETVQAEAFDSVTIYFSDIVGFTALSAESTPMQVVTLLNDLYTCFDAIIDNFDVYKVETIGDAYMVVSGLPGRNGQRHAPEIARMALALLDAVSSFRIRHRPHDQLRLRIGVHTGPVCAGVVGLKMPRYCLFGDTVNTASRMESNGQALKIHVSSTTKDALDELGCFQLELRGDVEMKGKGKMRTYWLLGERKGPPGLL
As to the kind of experiment: cell-based or functional assay.
On to B1, for which the “EC50 group, cGMP in GTM-3 cells” value is not above 1 µM.

For Octanoyl-[dA][NMeF][dOrn]L[Hyp][NMeL]DRI-NH2 [JAL-1269], the “EC50 group, cGMP in GTM-3 cells” value is not above 5 µM.

Regarding Octanoyl-[Sni]F[dR]L[Pro(trans-4-NH2)][NMeL]DRI-NH2 [JAL-1317], the “EC50 group, cGMP in GTM-3 cells” value is not above 1 µM.

Take Octanoyl-[Sni]F[dL]L[Pro(trans-4-NH2)][NMeL]DRI-NH2 [JAL-1295]: the “EC50 group, cGMP in GTM-3 cells” value is not above 1 µM.

On to Octanoyl-[dAze]F[dR]L[Hyp][NMeL]DRI-NH2 [JAL-1274], for which the “EC50 group, cGMP in GTM-3 cells” value is not above 5 µM.

For the molecule Hexanoyl-P[dA]FGLKLDRI-NH2 [JAL-0634], the “EC50 group, cGMP in GTM-3 cells” value was not above 15 µM.

As to XXFXLXXDRI (Occ-Sni-Phe-orn(Me2)-Leu-Hyp-Nml-Asp-Arg-Ile-NH2) [JAL-1289], the “EC50 group, cGMP in GTM-3 cells” value is not above 1 µM.

Consider B2, for which the “EC50 group, cGMP in GTM-3 cells” value is not above 5 µM.

Consider 6182-[dA]F[dR]L[Hyp][NMeL]DRI-NH2 [JAL-1298], for which the “EC50 group, cGMP in GTM-3 cells” value is not above 5 µM.

Octanoyl-[dA]F[dL]L[Pro(trans-4-guanidino)]LDRI-NH2 [JAL-1272]: the “EC50 group, cGMP in GTM-3 cells” value is not above 5 µM.

As to Octanoyl-[dA]FGL[Pro(trans-4-guanidino)]LDRI-NH2 [JAL-1270], the “EC50 group, cGMP in GTM-3 cells” value was not above 5 µM.

Turning to Octanoyl-[dA]F[dR]L[Hyp][NMeL]DR[Tle]-NH2 [JAL-1305], the “EC50 group, cGMP in GTM-3 cells” value was not above 1 µM.

As to Octanoyl-[Azetidine3carboxylic]F[dR]L[Hyp][NMeL]DRI-NH2 [JAL-1275], the “EC50 group, cGMP in GTM-3 cells” value is not above 5 µM.

In the case of B3, the “EC50 group, cGMP in GTM-3 cells” value is not above 5 µM.

Turning to Octanoyl-[Sar]F[dR]L[Hyp][NMeL]DRI-NH2 [JAL-1273], the “EC50 group, cGMP in GTM-3 cells” value was not above 5 µM.

Take Hexanoyl-A[dA]FGLKLDRI-NH2 [JAL-0632]: the “EC50 group, cGMP in GTM-3 cells” value is not above 15 µM.

As to Octanoyl-[dA]F[dR]L[Pro(trans-4-guanidino)]LDRI-NH2 [JAL-1271], the “EC50 group, cGMP in GTM-3 cells” value was not above 5 µM.

With Octanoyl-[dA]F[dL]L[Eal][NMeL]DRI-NH2 [JAL-1281_01], the “EC50 group, cGMP in GTM-3 cells” value was not above 5 µM.

Consider XAFRXXXDRI (Occ-ala-Phe-arg-Dap(Me2)-Hyp-Nml-Asp-Arg-Ile-NH2) [JAL-1315], for which the “EC50 group, cGMP in GTM-3 cells” value was not above 15 µM.

For the molecule B4, the “EC50 group, cGMP in GTM-3 cells” value is not above 5 µM.

On to Octanoyl-[dA]F[dL]L[Pro(trans-4-NH2)][NMeL]DRI-NH2 [JAL-1296], for which the “EC50 group, cGMP in GTM-3 cells” value was not above 1 µM.

As to Hexanoyl-S[dA]FGLKLDRI-NH2 [JAL-0633], the “EC50 group, cGMP in GTM-3 cells” value was not above 15 µM.

Turning to B5, the “EC50 group, cGMP in GTM-3 cells” value is not above 5 µM.

For B6, the “EC50 group, cGMP in GTM-3 cells” value is not above 1 µM.

For the molecule [AR‑201‑48][dL]L[Hyp][NMeL]DRI-NH2 (reading uncertain; also: printed as (AR-201-48)-leu-Leu-Hyp-Nml-Asp-Arg-Ile-) [JAL-1293], the “EC50 group, cGMP in GTM-3 cells” value was not above 15 µM.

Consider XAFRLXXDRI (Occ-ala-Phe-arg-Leu-Hyp-Dap(Me2)-Asp-Arg-Ile-NH2) [JAL-1314], for which the “EC50 group, cGMP in GTM-3 cells” value was not above 5 µM.

B7: the “EC50 group, cGMP in GTM-3 cells” value was not above 5 µM.

With B8, the “EC50 group, cGMP in GTM-3 cells” value is not above 1 µM.

For the molecule XAFXLXXDRI (Occ-ala-Phe-orn(Me2)-Leu-Hyp-Nml-Asp-Arg-Ile-NH2) [JAL-1288], the “EC50 group, cGMP in GTM-3 cells” value is not above 1 µM.

Take Octanoyl-[dA]F[dR]L[Hyp][NMeL]DR[Ac5c]-NH2 [JAL-1306]: the “EC50 group, cGMP in GTM-3 cells” value was not above 5 µM.

Consider XXFXLXXDRI (Occ-Sni-Phe-dap(Me2)-Leu-Hyp-Nml-Asp-Arg-Ile-NH2) [JAL-1287], for which the “EC50 group, cGMP in GTM-3 cells” value is not above 1 µM.

Octanoyl-[Sni]F[dL]L[Hyp][NMeL]DRI-NH2 [JAL-1302]: the “EC50 group, cGMP in GTM-3 cells” value was not above 1 µM.

B9: the “EC50 group, cGMP in GTM-3 cells” value was not above 1 µM.

For Octanoyl-[Sni]F[dR]L[Hyp][NMeL]DRI-NH2 [JAL-1297], the “EC50 group, cGMP in GTM-3 cells” value was not above 1 µM.

Regarding B10, the “EC50 group, cGMP in GTM-3 cells” value is not above 5 µM.

[AR‑201‑48][dR]L[Hyp][NMeL]DRI-NH2 (reading uncertain; also: printed as (AR-201-48)-arg-Leu-Hyp-Nml-Asp-Arg-Ile-) [JAL-1291]: the “EC50 group, cGMP in GTM-3 cells” value is not above 15 µM.

For the molecule Octanoyl-[dA]FGL[Eal][NMeL]DRI-NH2 [JAL-1282], the “EC50 group, cGMP in GTM-3 cells” value is not above 15 µM.
